One block for each binder: values may come before it.
What was measured:
Assay in all cases: cell-based or functional assay
[1] = target: spHT 80 C-terminal fragment [81-297] fused to FRB or FKBP
[2] = target: spHT 19 C-terminal fragment [20-297] fused to FRB or FKBP
[3] = target: spHT 133 C-terminal fragment [134-297] fused to FRB or FKBP
[4] = target: spHT 145 C-terminal fragment [146-297] fused to FRB or FKBP
[5] = target: spHT 157 C-terminal fragment [158-297] fused to FRB or FKBP
[6] = target: spHT 180 C-terminal fragment [181-297] fused to FRB or FKBP
[7] = target: spHT 195 C-terminal fragment [196-297] fused to FRB or FKBP

B1: spHT 80 N-terminal fragment [1-80] fused to FRB or FKBP (protein, part only; not given: FRB or FKBP partner, orientation, part only)
chain, part: MAEIGTGFPFDPHYVEVLGERMHYVDVGPRDGTPVLFLHGNPTSSYVWRNIIPHVAPTHRCIAPDLIGMGKSDKPDLGYF
fold increase in JF646 fluorescence with 50 nM rapamycin (E. coli lysates) [1]: > 2 fold

Binder: MAEIGTGFPFDPHYVEVLG (peptide, part only; not given: FRB or FKBP partner, orientation, part only) [spHT 19 N-terminal fragment [1-19] fused to FRB or FKBP]
increase in JF646 fluorogenic signal at a N:C fragment ratio of 10 [2]: 25%
increase in TMR labeling efficiency on raising the N:C fragment ratio from 1.25 to 10 [2]: > 100%

B2: spHT 133 N-terminal fragment [1-133] fused to FRB or FKBP (protein, part only; not given: FRB or FKBP partner, orientation, part only)
chain, part: MAEIGTGFPFDPHYVEVLGERMHYVDVGPRDGTPVLFLHGNPTSSYVWRNIIPHVAPTHRCIAPDLIGMGKSDKPDLGYFFDDHVRFMDAFIEALGLEEVVLVIHDWGSALGFHWAKRNPERVKGIAFMEFIR
fold increase in JF646 fluorescence with 50 nM rapamycin (E. coli lysates) [3]: > 2 fold

B3: spHT 145 N-terminal fragment [1-145] fused to FRB or FKBP (protein, part only; not given: FRB or FKBP partner, orientation, part only)
chain, part: MAEIGTGFPFDPHYVEVLGERMHYVDVGPRDGTPVLFLHGNPTSSYVWRNIIPHVAPTHRCIAPDLIGMGKSDKPDLGYFFDDHVRFMDAFIEALGLEEVVLVIHDWGSALGFHWAKRNPERVKGIAFMEFIRPIPTWDEWPEFA
fold increase in JF646 fluorescence with 50 nM rapamycin (E. coli lysates) [4]: > 2 fold

Other lines, results leading:

fold increase in JF646 fluorescence with 50 nM rapamycin (E. coli lysates) [5]: > 2 fold
B4: spHT 157 N-terminal fragment [1-157] fused to FRB or FKBP (protein, part only; not given: FRB or FKBP partner, orientation, part only)
chain, part: MAEIGTGFPFDPHYVEVLGERMHYVDVGPRDGTPVLFLHGNPTSSYVWRNIIPHVAPTHRCIAPDLIGMGKSDKPDLGYFFDDHVRFMDAFIEALGLEEVVLVIHDWGSALGFHWAKRNPERVKGIAFMEFIRPIPTWDEWPEFARETFQAFRTTDV

fold increase in JF646 fluorescence with 50 nM rapamycin (E. coli lysates) [6]: > 2 fold
B5: spHT 180 N-terminal fragment [1-180] fused to FRB or FKBP (protein, part only; not given: FRB or FKBP partner, orientation, part only)
chain, part: MAEIGTGFPFDPHYVEVLGERMHYVDVGPRDGTPVLFLHGNPTSSYVWRNIIPHVAPTHRCIAPDLIGMGKSDKPDLGYFFDDHVRFMDAFIEALGLEEVVLVIHDWGSALGFHWAKRNPERVKGIAFMEFIRPIPTWDEWPEFARETFQAFRTTDVGRKLIIDQNVFIEGTLPMGVVRP

fold increase in JF646 fluorescence with 50 nM rapamycin (E. coli lysates) [7]: > 2 fold
B6: spHT 195 N-terminal fragment [1-195] fused to FRB or FKBP (protein, part only; not given: FRB or FKBP partner, orientation, part only)
chain, part: MAEIGTGFPFDPHYVEVLGERMHYVDVGPRDGTPVLFLHGNPTSSYVWRNIIPHVAPTHRCIAPDLIGMGKSDKPDLGYFFDDHVRFMDAFIEALGLEEVVLVIHDWGSALGFHWAKRNPERVKGIAFMEFIRPIPTWDEWPEFARETFQAFRTTDVGRKLIIDQNVFIEGTLPMGVVRPLTEVEMDHYREPFLN

Source: patent US20240174992A1, “SPLIT MODIFIED DEHALOGENASE VARIANTS” (Promega Corporation, priority 2022, published 2024)
